The data set can be described thus: label from the status in PepcDB records.
“MREHHHNLRHYTLYAATIITITTLVRFWFVASGQLDLVQDEAQYWDWTRRLQLSYYSKGPLIAWLIGMWTGVFGDTELGVRFGALAGSALAQVMLFLGVGRLFGRPRLALLTLGVANTTPLFMVAGVLMTTDGPLLLCWLGALLCIHAATRTPRATAPYLLLAMCMAVGVLAKYMMLAVAAIACLHMWLLHRQRLLPQGVALRVVCACLAGAACGMLPILLWNAQNDWVGFKHVGTLAGVTGKASKAFLRLDRLPEHLGAQLGVATPWWLLLMLGMAWRSLRIAWTGVVPPGEPAEAAGREEAVRQSSLLFCAFMPLWGVITLWSLHTRIYPNWPAMSYVGGIILAAAGVERLLDGLGAPRWRRLVPLWFTLGACLFAAAHFQNTLPLPASLNPAARLKGWEDLGRELDRVRHGLPHPDRVFFFSDAYDITAELAFYVPGKPFTFCADFGRRMSQYDLWPSPADKVGWDAVFVRRDGTSVPRELLEMFDSAELYRYQSTHHGAPGRVFTVIVLRGFNGEWPRRSFRSF”: the protein production result is listed as “failed”.

Regarding “MRETGSRPSRSGERRLSWLWLAMAASLVFAVFAVRPPSRIDNVLYDVLTRANAHPADDSILIVDIDDRSLARMGAWPWGRDTHARMVDQLTQAGAKTIVYDVLFSQPSRDPAQDRALGEAIARSGRVYLPEFLIDGGEQAPPRVVGSISEIARGAAGVGLAHVRFDDDGVVRRMAPFEANGPSLKPDLMTVVHRATRPPGSPDVTRGNEQTLLISFAGPPSIYRHASFASVLDGEVPRELIAGRTVFVGLTAPGLGPAFPTPVTPDAASMTGVQLQASVLDALRSGRMITPAGPWSRVGFSLTLLWLLMIGFMALPPRANLLLTIGLCLVGLAYSAALFWLGHIWLSPITTVIGLQLVALIWGWGRLGQVNDLIGRELARVRAVVRGRGAKPAAFSGDVVTRQASSLGDAITRMDDLRRFSADALFSLPDATLVANEQGRVIAANAAAQALFKPHQATLNGASLADLINLLDPLGRRFELDWPQATDRHDPIDLHLPDGRAFQLQTVLRRDEHGGPAGWIVRLADISILTAAMRQREQALQLLTHDMRSPQTSILALLATTPDLPKETADRIAAYARRTLALADGFVQLARAEVTPVSLEPLDLADVAVEAIDEVWPQSLQRKIRIEQVGGEAPLMVLGDRSVLARTFVNLLGNALKYSPSGSTITVNLAEQPSPSGPVACIAIADQGPGFSREEAATAFRPFQRFERPGHELASNGVGLGLAFVQAAVARHGGEVSCRSEPGVGAEFTVRLPRHGVVQGG”, the protein production result was “failed”.

As for “MRETIREIQKVAYWLAIKGLSEANAGNISVRLDERPEGYEVKSVNEYGFDYDGPEMYLLITATGSRMREVYEDDSKICLLHVLPGKHYEILHGNGKPTSEFPTHLMIHAKFKEMNPEKKAIVHTHPLNLLTLMNLEEFQELLPKMMKIHPEVLIFFPQGISVVEFEKPGSVELGLKTVEKSEGKDAVLWDKHGVVAFGKDVAEAYDRVEILEKAAEILLRVLSLGRNPTGVPEGWL”, the protein production entry is recorded as “not failed”.

As to “MRETSNPVFRSLPKQRGGYAQFGTGTAQQGFPADPYLAPYREAKATRPLTIDDVVTKTGLTLAMLAGTAVVSYFLVASNVALAMPLTLVGALGGLALVLVATFGRKQDNPAIVLSYAALEGLFLGAISFVLANFTVASANAGVLIGEAILGTMGVFFGMLVVYKTGAIRVTPKFTRMVVAALFGVLVLMLGNLVLAMFNVGGGEGLGLRSPGPLGIIFSLVCIGIAAFSFLIDFDAADQMIRAGAPEKAAWGVALGLTVTLVWLYIEILRLLSYLQNE”, the protein production entry is on record as “failed”.

Take “MRFLFLLFIVFPAIEIGIFLFLGNLIGILPTVLFMILTGIIGAAAAKKQGTEVYYKVQRDLQYGKMPGEAIADGLCIFIGGLLLMLPGFLSDLAGACLLIPFTRGWCKPILFKWLRGMSKNKRIIIK”: the protein production entry was “failed”.

With “MRFMFLHPRLSLEGDPLGLMQLSASLKQRGHIVGLTLLTEDYIEAIRSFQPDMLGVSLMSSDAVMMHQVLNKVRMVFPDLFIIVGGPHPTFDPSCLMVLPVNAICVGEGDEALVEALEQYGREGHVEGIRNVGTVTTPVTLRPLVSDLDDLPFIDRDIVYAKNHIVRDFPLKTFAASRGCHFKCTYCFNHAYNAMYAGLGHVVRRRSVDHLIAEMRDVIARYPTSYIKISDDSFTYRVDSWLEEFAEKYPRLIGLPFYCLLRADVVTRDMVRLLREAGCRSVCMSIEAGAETVRRDVLNRRVSNEKIIESFDLFNEAGIAIYTNSMLAMPRATLADDIATLDLNIRCRPTLGHFTIMAPFPGTRIHDMCEKDGILPERCGGDGDIPTSTGELSKLTTYTDEEKNIQKNIVLLGPLVIRFPVLRGVFLRCLAKLPSNNILFKCIYTVTKNLLFKRIVPVRMSPLLMLRIAIAQVKAARTQVG”, the protein production result is “failed”.

For the sequence “MRFNYPPDGVSQLIASRWKIGVALALAVLLFFAFLVLLPLADGIVLGIVFAYIARPIQVKFGKYRKIGALIASLFIFIPIVFIVGAGVVEILNQISWIFENQTSVMSGILDFIHGLEIPSTYVERINNAIWNLFTSLLPAVGSVGLISYAQSIGLFVINFIVSIFFCYFLLADGDRLYCAFIGMIPSDYQNIVNRYASHLDLILKGVFIGNAYSALIVSVTSVFVFRAFGFSHVLALATLVFIASVIPLFAGYMVLVPMALFRYFEQGFQSAALFFVVSSLVIYGPPELILRPFLTSLKSKIHPMLLMLAFLGGAFVGGIAGFFAAPILLGALVAAYRVYQEQIHPELVAQADVYLKDPAKACRTDEKNSFQ”, the protein production result is reported as “failed”.

Consider “MRFPELEELKNRRTLKWTRFPEDVLPLWVAESDFGTCPQLKEAMADAVEREVFGYPPDATGLNDALTGFYERRYGFGPNPESVFAIPDVVRGLKLAIEHFTKPGSAIIVPLPAYPPFIELPKVTGRQAIYIDAHEYDLKEIEKAFADGAGSLLFCNPHNPLGTVFSEEYIRELTDIAAKYDARIIVDEIHAPLVYEGTHVVAAGVSENAANTCITITATSKAWNTAGLKCAQIFFSNEADVKAWKNLSDITRDGVSILGLIAAETVYNEGEEFLDESIQILKDNRDFAAAELEKLGVKVYAPDSTYLMWLDFAGTKIEEAPSKILREEGKVMLNDGAAFGGFTTCARLNFACSRETLEEGLRRIASVL”, for which the protein production result was “failed”.

With “MRFPSLLALGLTLPLGAFAAGGDSTGGSTWTNPPKETQTTKECKGVKVWDDKKKRCVAPKNSGLDADTLYDAVRELAYAGRPADAQGVLAAMPDQSDDRVLTYWGFTHRKLGDLDRAAFYYQAAIAANPDNILARSYMGQGFVEAGKTDLAIAQWREITARGGEGSWAEVSLREAIRSGLTYSY”, the protein production entry was “failed”.

In the case of “MRFSLFVHMERVSDQQTQKQLYDEMIELCQIADRGGMHAIWTGEHHAMNFTIAPNPFLNIADLANKTKHVRLGTGTVVAPFWHPIKLAGEAAMTDIISNGRLDIGIARGAYSFEYERMVPGMDAWSAGQRLREMIPAIKNLWKGDYEHNGEFWQFPKTTSAPQPLQQPNPPIWVAARDPNSHEFAVQNGCNVQVTPLHLGDEEVEKLMGHFNSACEKFQDIERPEIMLLRHTYVADSEEDAQVAANEMNVFYNYFGAWFKNEREINQGLIAPLSDEEIAAHPFYTPEAMRKNNVIGQAQEVIDRLKAYEAMGYDEYSFWIDTGMSFERKKASLERMINEVMPAFSESKVDRRHATISAVY”, the protein production entry is “failed”.

“MRFVNPIPFVRDINRSKSFYRDRLGLKILEDFGSFVLFETGFAIHEGRSLEETIWRTSSDAQEAYGRRNMLLYFEHADVDAAFQDIAPHVELIHPLERQAWGQRVFRFYDPDGHAIEVGESLSQSGE”: the protein production entry was “not failed”.

Regarding “MRGARKSMGRVSYLRLPHLSGDQLCFVAEDDLWLASLDGPGRAWRLTVDRTKAGPPRFSPDGRHIAYTSWRTLVPEVHLVPVDGGPGRQLTHWGGLDTRVCGWSPPDPDGTTAVLAVASHGEPFSHLTWAYKVTPDGDPGRKLPWGPVTDIQAADLDGERRTLLLTGTPPHEPAAWKRYRGGATGRLWLHGERLLPDLGGHLSAPMFVGGRIAFLSDHEGVGNLYSCAQDGTGLRRHTDHDAFYARNAASDGTRVVYQCAGDLWIVDDLAPGSAPRRLDVRLSGPRAGRRTHQVPAAQHVGGISVDETGRASAVVVRGSLYWLTHRDGPARTIADTPGVRVRLPEMLGESGRIAYVTDAEGEDAVEISYLPRATGGRAARRLASGRLGRVLELVSDPAGDRLAVASHDGRLLILDVAEPDTEVTLALEAVDAGYPPDAGDEDAAGTAARADSAPDAPAEDTDARDIAAGTGTGDIADADAAAGGTVTPGSPGTPATAGGQVTELIRSVNGPVRDLAFSPDGTWLTWSHPGIGRTLRQIKMARIDGPEGTLVVDVTNGRFEDENPVFTRDGRYLAFLSWRGFDPVYDVHTGDLSFPLGCRPYLVPLSSATPSPFALNPEGRPAAGGLDPLEDEPGEGGAVMVEVEGLESRVTPFPVTASKYSALEPVAGGGLVWLRWPISGALGETFANPADPSERPTLEHFNLAKAKKSELVDHLDWFRVSGDGSRLVVLDEGELRAVPASEVGDGDSTTWIDLRRILHEVDPAAEWRQAYDEAGRLIRAYFWDPGMCGIDWDAVLDQYRPLLERVASPDEFADLLREVLGELGTSHAYVVAARRNEGPAHYQRWQGLLGANLACRDGRWLVRRILPGDSSDSKARSPLAGTGIRDGAVLTHVDGRPVDPVLGPSPLLAGAGGTTVELTFAPAEGCQGPSRRVAVVPLVDERPLRYQDWVAKRREVVRELSGGRCGYLHIPDMGGSGWAQFNRDLRMEVSRPALIVDVRGNAGGHISELVIEKLTRTILGWDLTRDAQPVSYTSNAPRGPVVAVADEATSSDGDMITAAFKLLRLGPVVGQRTWGGVVGMTGRHRLGDGSVITVPMNAAWFDAYGWSVENYGVAPDVEALRTPLDWAEGRYPVLDEAVRLALELLETNPPATPPGYEAVPDRSRPPLPPRE”, the protein production entry was “failed”.

For the sequence “MRGKILIFLHAHLPYVHHPEYDHFLEERWLFEAITETYIPLLMMFDEIEDFRLTMSITPPLMEMLSSRDLQEKYERHMEKLIELANKEVERTKKEHPLKHKMAKFYREHFEKILNVFRSYDGNILEGFKKYQETGKLEIVTCNATHAFLPLYQMYPEVVNAQITVGVKNYAKHMTLHPRGIWLAECGYYQGLDLYLAQNNVEYFFVDSHAFWFADEQPRYGVYRPIMTPSGVFAFARDPESSEQVWSAAVGYPGDPRYREFYRDIGFDREMEYIKDYIDPSGVRINTGIKYHRITSKSLDASQKEYYDIDLAMEAVEEHARDFLHKKESQARRLMDIMGVEPVIVAPFDAELFGHWWFEGVFFLKRFFELVNESKDLKLVTASEVIDTLEEVQIATPADSSWGAGGYYETWLNGTNDWIYRHLHEMIERMIDLSKKYYNSSDPLVERVLNQMLRELFLAQSSDWAFIMTTRTSVQYAENRTKLHIKRFLNLYDQLVSGRIDEEMLRYYEWTDAIFPEINFRVMARDVI”, the protein production entry is “not failed”.

For the sequence “MRGLSLSPVVLPEVRREAGVELRKARLEDVDAIYWLIRYWAEKGLMLVRSHSHLYENIRDFWVLEDEDGQIVGTVALHVLWRDLAEIRGLAVHPTRQGQGLGRWLVLGAEREARDLGLPRVFAWTLQVNFFRALGYRVTSREALPPKVWSECNACPFYENCREIAVVKEFSPGASGG”, the protein production entry is recorded as “failed”.

As for “MRGSVPSVREIETLLSQLPWRQFQSPRVHLEQYTTPVHLAARIAHHVALCIDEDERRSVQAVDLGTGTGILALALCLAGLNHVLGVDVDSEALELARANAAALWELCPQSVGAVLEFAAVDVQPNSLALAPKSFDVAVLNPPFGTRQRSADIAFLDVACHLSRRFVYSLHKSSTRSYLSRRLERFGCTAQVYARLRFDLPATYVFHRERAVDIDVDLWQIEVKR”, the protein production result is recorded as “not failed”.

Take “MRGYYDEISFDVNTTAKKMHLFLMRSIASYDVTPEQWSVLEGIEANEPISQKEIALWTKKDTPTVNRIVDVLLRKELIVREISTEDRRISLLSLTDKGRKETTELRDIVEASCEKMFAGVTRTDLEQFTAILKNISTNIE”: the protein production result is reported as “not failed”.

Values taken from a protein production outcome set (Wang et al. 2014).
